Data from the nanobody polyreactivity screen of Harvey et al. (2022).

test: yeast display, Sf9 membrane polyspecificity reagent, FACS + sequencing; frameworks hold sequencing errors
How it was run: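 After 36–48 hours of galactose induction, yeast (Saccharomyces cerevisiae BJ5465) displaying a synthetic nanobody library were stained at 4 °C for 1 hour with 10% biotinylated, detergent-solubilized Sf9 membrane reagent. Streptavidin microbeads enriched the stained cells before FACS sorting into low and high (top ~1%) gates on anti-HA and streptavidin fluorescence. Each clone's polyreactivity label reflects its gate of origin.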

Row | Sequence | polyreactivity (PSR sort gate)
1 | QVQVVESGGGLVQAGGSLRLSCAASGSTFKNYAMGWYRQAPGKERELVAAIHGRGGSTYYADSVKGRFTISRDNAKNTVYLQMNSLKPEDTAVYYCAASRVHSYNPGYPRYYYWGQGTQVNVSS | high polyreactivity
2 | QVQLVESGGGLVQAGGSLRLSCAASGRIFGYNAMGWYRQAPGKERELVAAINSDGSKNYADSVKGRFTISRDNAKNTVYLQMNSLKPEDTAVYYCNKELYPVGDYEYWGQGTQVTVSS | low polyreactivity
3 | QVQLVESGGGLVQAGGSLRLSCAPSGGTFPFNAMGWYRQAPGKERELVAAISGRSGRTYYADSVKGRFTISRDNAKNTVDLQMNRLKPEDTAVYYCAARRWRPYDYWGQGTQVTVSS | high polyreactivity
4 | QVQLVESGGGLDQAGGSLRLSCAASGITLTANAMGWYRQSPGTERELVAAISRGGSTYYADSVKGRFTISRDNAKNTVYLQMNSVKPEDTQVFYCNKAGGYWYAKRDYDYWGQGTQVTVSS | high polyreactivity
5 | QVQLVESGGGLVQAGGSLRLSCAASGSIFPSYAMGWYRLAPGKERELVATISSDGGTNYADSVKGRFTISRDNAKNTVYLQMYSLKPEDTAVYYCATRTTYGQSGSAGPRPYNYWGQGTQVTVSS | low polyreactivity
6 | QVQLVESGGGLVQAGGSLRLSCAASGFIFASNAMGWYRQAPGKERELVAAINSSGGSTYYADSVKGRFTISRDNAKNTVYLQMNSLKPEDTAVYYCAADVIGDLRWYRDEYWGHGTQVTVSS | low polyreactivity
7 | QVQLVESGGGLVQAGGSLRLSCAASGRIFDKYTMGWYRQAPWKERELVPAISKSGSGTFYADSVKGRFTISRDNAKNTVYLQMNSLKPEDTAVYYCARVYTVGSGRSWRLDYWGQGTQVTVSS | high polyreactivity
8 | QVQLVESGGGLVQAGGSLRLSCAASGRIFYVYAMGWYRQAPGKERELVAAITQSGGRTYYADSVKGRFTISRDNAKNTVYLQMNSLKPEDTAVYYCAATWLGSRNLVHITLYYWGQGTQVTVSS | low polyreactivity
9 | QVQLVESGGGLVQAGGSLRLSCAASGFTFTKYAMGWYRQAPGKERELVAAITSSGGGTYYADSVKGRFTISRDYAKNTVYLQMNRLKPVDTAVYYCARDSRTGYYYWGQGTQVTVSS | high polyreactivity
10 | QVQLVESGGGLVQAGGSLRLSCAASGSIFYPYAMGWYRQAPGKERELVAAIRWRGGNTYYADSVKGRFTISRDNAKNTVYLQMNSLKPEDTAVYYCAADGKYLQGFGYYYWGQGTQVTVSS | high polyreactivity
11 | QVQLVESGGGLVQAGGSLRLSCAASGSICYSYAMGWYRQAPWKEREFVATISDSSGSTYYADSVKGRFTISRDYATNTVYLQMNSLKPEDSAVYYCATTDSYGYYGYGYWGQGTQVTVSS | low polyreactivity
12 | QVQLVESGGGLVQAGGSLRLSCAASGSTFYKYAMGWYRPAPGKERELVAAISRGGSTYYADSVKGRFTISRDNAKNTVYLQMNSLKPEDTAVYYCAALYGLGRPQDSTFLFDYWGQGTQVTVSS | low polyreactivity
13 | QVQLVESGGGLVQAGGSLRLSCAPSGSIFPSNVMGWYRQAPGKERELVAAISNTGSTNYADSVKGRFTISRDNAKNTVYLQMNSLKPEDTAVYYCNGDASYGFWSLLDYDYWGQATQVTVSS | low polyreactivity
14 | QVQLVESGGGLVQAGGSLRLSCAASGFTSYTNAMGWYRQAPGKERELVAAIDVSGSDTYYADSVKGRFTISRDNAKNTVYLQMNSLKPEDTAVYYCAAEYYSYYYQGYDYWGQGTQVTVSS | high polyreactivity
15 | QVQLVESGGGLVQAGGSLRLSCAASGRIFGVYAMGWYRQAPGKERELVAAIDSSDGSTYYADSVKGRFTISRDNAKNTVYLQMNSLKPEDTAVYYCAADTPAAVYGYDYWGQGTQVTVSS | low polyreactivity
16 | QVQLVESGGGLVQAGGSLRLSCAASGIIFIKYAMGWYRQAPGKERELVAAITSGGSTHYADSVKGRFTISRDNAKNTVYLQMNSLKPEETAVYYCNADILRHVAYFKDRYQAGSYWGQGTQVTVSS | low polyreactivity

Row | Sequence | polyreactivity (PSR sort gate)
17 | QVQLVESGGGLVHAGGSLRLSCAASGSTFYYYAMGWYRQAPGKERELVAAIRGDSTYYADSVKGRFTISRDNAKYTVYLQMYSLKTEDTAFYYCAADWYDTGFWWTYPYDYWGQGTQVTVSS | low polyreactivity
18 | QDQLVESGGGLVQAGGSLRLSCAASGRTFVYNAMGWYRKAPGKVRELVAAITRGGSTNYADSVKGRFTISRDNAKNTVYLQMNILKPEDTAGYYCAAGLKRYGSYPWLKSGMGYWGQGTQVTVSS | high polyreactivity
19 | QVQLVESGGGLVQAGGSLRLSCAASVSTFQVYGMGWYREAPGKERELVAAISYSGGRTYYADSVKGRFTISRDNAKNTVYLQMNILKPEDTAVYYCNAVLAHDPRLDYWGQGTQVTVSS | high polyreactivity
20 | QVQLGESGGVLVQAGGSLRLSCSASGSTFYSNAMGWYRQAPVKEREFVAAITGSGGSTYYADSVKGRFTISRDNAQNTVYLQMNSLKPEVTAVYYCAAGTRIYNSWIRFDYWGQGTQVTVSS | high polyreactivity
21 | QVQLVESGGGLVQAGGSLRLSCAASGITFWTYTMGWYRQAPGTERELVAAISKRGGSTYYADSVKGRFTISRDNAKNSVYLQMNSLKPEDTAVYYCAATYSYRFSSFDYWGQGTQVTVSS | high polyreactivity
22 | QVQLVESGGGLVQAGGSLRLSCAASGRIFRVNGMGWDRQAPGKERELVAAIRRSGGSTYYADSVKGRFTISRDNAKNTVYLQMNSLKPEDTAVYYCAAPVRQSSYTRYDSWGQGTQVTVSS | high polyreactivity
23 | QDQLVESGGGLVQAGGSLRLSCAASGITFRYYAMGWYRQAPGKERELVAAITGGGGSTYADSVKGRFTISRDNAKNTVYLQMNSLKPEDTAVYYCNATPRARSLPLRYQHDYWLQGTQVTVSS | low polyreactivity
24 | QVQLVESGGGLVQAGGSLRLSCAASGSTFQIYAMGWYRQAPGNERELVAAITSSSSTNYADSVKGRFTISRDNAKNTVYLQMNSLKPEDTAVYYCAADVSWRSNWYDYWGQGTQVTVSS | low polyreactivity
25 | QVQLVESWGGLVQAVGSLRLTCAASGVIFAIYAIGLYRQAAGKEREMVSSIRWSSGRTYYPDSVKGRFTISRDNAKNTVYLQMNSLKPEDTAVYNCAATPSIFTIHRQDYDYWGQGTQVTVSS | high polyreactivity
26 | QVHLVESGGGLVQAGGSLRLSCAASGFIFRYYAMGWYRQAPGKEREMVAAISWSGGSTYYADSVKGRFTISRDNAKNTVYLQMNSLKPEDTAVYYCAADRYAILFYAEDYWGQGTQVTVSS | low polyreactivity
27 | QVQLVESGGGLVQAGGSLRLSCAASGSIIGYYTMGWYRQAPGKEREFVAAISWSGGSTYYADSVKGRFTISRDNAKNTVYLQMNSLKPEDTAVYYCNADVYWEYDYCGQGTQVTVSS | low polyreactivity
28 | QVQLVESGGGIVQAGGSLRLISAASGFIFAIYAMGWYRQAPGNERELVAGISSSGSTTRYADSVKVRFTISRDYAKYTVYLQLISLIPEDTAVYDCAADGYPGDDYWGQGTQVTVSS | high polyreactivity
29 | QVQLVESGGGLGQAGGSLRLSFAASGRTFWYNAMGWYRQAPGKERELVAAISNGGSTNYADSVKGRFTISRDYATNTVYLQMNSVKPEDTAVDYCNAGLYRSPYPGRLGSRYDYWGQGTQVTVSS | high polyreactivity
30 | QVQLVESGGGLVQAGGSLRLSCAASGFTFVRYVMGWYRQAPGKERELVAAISRSGGSTHYADSVKGRFTISRDNAKNTVYLQMNSLKPEDTAVYYCADASPRWPGQGDYWGQGTQVTVSS | high polyreactivity
31 | QVQLVESGGGLVQAGGSLRLSCAASGFTFQYYAMGWYRQAPGKERELVAAINWSGGRTYYADSVKGRFTISRDNAKNTVYLQMNSLKPEDTAVYYCAATRSFSGGYGYVSYDYWGQGTQVTVSS | high polyreactivity
